According to patent publication US20100087625:
Residue numbers refer to the chain shown, from its start.

What was measured:
[1] = system: T1, S1S2proBMP-2 (human proBMP-2 with S1 site REKR replaced by TNGIEGRALDP and S2 site RISR mutated to AISR; construct IND2372)
T1 sequence: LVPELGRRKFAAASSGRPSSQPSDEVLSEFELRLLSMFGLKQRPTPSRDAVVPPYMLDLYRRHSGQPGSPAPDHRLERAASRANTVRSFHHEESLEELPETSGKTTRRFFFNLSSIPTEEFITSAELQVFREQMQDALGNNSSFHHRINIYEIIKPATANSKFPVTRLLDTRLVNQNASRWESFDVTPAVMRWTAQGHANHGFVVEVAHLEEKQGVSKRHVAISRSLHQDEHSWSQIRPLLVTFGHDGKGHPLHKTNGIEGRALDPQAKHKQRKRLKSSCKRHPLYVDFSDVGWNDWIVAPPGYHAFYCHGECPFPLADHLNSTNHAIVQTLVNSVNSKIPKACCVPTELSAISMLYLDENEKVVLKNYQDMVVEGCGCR

[2] = system: T2, S1proBMP-2 (human proBMP-2 with the S1 furin cleavage site REKR replaced by TNGIEGRALDP; constructs IND2340 and IND2341)
T2 sequence: T1 sequence with A222R

[3] = system: T3, recombinant human proBMP-2 (wild type, produced by CHO-BMP-2 cells)
T3 sequence: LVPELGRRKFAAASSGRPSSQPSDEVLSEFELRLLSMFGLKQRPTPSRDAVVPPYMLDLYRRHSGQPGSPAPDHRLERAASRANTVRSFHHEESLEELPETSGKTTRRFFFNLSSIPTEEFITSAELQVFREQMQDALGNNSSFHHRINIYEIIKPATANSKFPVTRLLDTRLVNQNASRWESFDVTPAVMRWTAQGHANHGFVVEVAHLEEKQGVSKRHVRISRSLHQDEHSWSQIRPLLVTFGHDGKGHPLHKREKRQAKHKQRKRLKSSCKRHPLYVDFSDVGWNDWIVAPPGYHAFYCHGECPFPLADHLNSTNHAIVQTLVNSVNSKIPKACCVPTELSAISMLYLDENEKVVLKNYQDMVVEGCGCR

Substance	Western blot after digestion with Factor Xa [1]	Western blot after digestion with Factor Xa [2]	Western blot after in vitro digestion with furin [3]
Factor Xa (Restriction Protease Factor Xa Cleavage and Removal Kit, Roche Applied Science Cat #1 644 777)	Cleavage of mutant BMPs S1 proBMP and S1 S2proBMP-2 by Factor Xa produced a mature BMP-2 that remained a dimer under non-reducing conditions with an apparent molecular weight of 30-32 KD	Cleavage of mutant BMPs S1 proBMP and S1 S2proBMP-2 by Factor Xa produced a mature BMP-2 that remained a dimer under non-reducing conditions with an apparent molecular weight of 30-32 KD	
furin (Sigma)			the purified CHO proBMP-2 monomers migrated at approximately 55 kDa were cleaved after 1 hr incubation with furin
